Results from US20240325561A1 (Seagen, published 2024).

T1: CD19 (UniProt P15391 20-556, limits assumed)
T1 sequence (looked up): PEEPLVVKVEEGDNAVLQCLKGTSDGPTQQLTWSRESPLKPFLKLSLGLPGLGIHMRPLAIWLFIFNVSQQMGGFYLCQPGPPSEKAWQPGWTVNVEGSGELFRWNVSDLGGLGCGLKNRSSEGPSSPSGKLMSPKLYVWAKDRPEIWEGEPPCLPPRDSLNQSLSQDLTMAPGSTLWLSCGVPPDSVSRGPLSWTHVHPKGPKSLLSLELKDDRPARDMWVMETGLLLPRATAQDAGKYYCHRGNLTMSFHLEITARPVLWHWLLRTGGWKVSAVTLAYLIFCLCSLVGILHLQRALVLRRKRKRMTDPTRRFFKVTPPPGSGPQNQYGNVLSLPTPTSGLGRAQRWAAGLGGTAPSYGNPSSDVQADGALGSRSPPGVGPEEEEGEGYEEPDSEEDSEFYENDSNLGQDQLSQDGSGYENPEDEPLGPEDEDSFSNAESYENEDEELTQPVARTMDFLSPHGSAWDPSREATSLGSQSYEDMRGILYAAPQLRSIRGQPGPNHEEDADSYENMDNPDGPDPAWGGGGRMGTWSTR

B1: hBU12-14 (antibody, V domains shown)
VH: QVQLQESGPGLVKPSQTLSLTCTVSGGSISTSGMGVGWIRQHPGKGLEWIGHIWWDDDKRYNPALKSRVTISVDTSKNQFSLKLSSVTAADTAVYYCARMELWSYYFDYWGQGTLVTVSS
VL: EIVLTQSPATLSLSPGERATLSCSASSSVSYMHWYQQKPGQAPRLLIYDTSKLASGIPARFSGSGSGTDFTLTISSLEPEDVAVYYCFQGSVYPFTFGQGTKLEIKR
modifications: antibody carries drug-linker 14 (MDpr-glucuronide-MMAE, no PEG), 8 drugs per antibody
B2: hBU12-18 (antibody, V domains shown)
VH: B1 VH
VL: B1 VL
modifications: antibody carries drug-linker 18 (MDpr-Lys(PEG8)-glucuronide-MMAE), 8 drugs per antibody
B3: hBU12-16 (antibody, V domains shown)
VH: B1 VH
VL: B1 VL
modifications: antibody carries drug-linker 16 (MDpr-Lys(PEG24)-glucuronide-MMAE), 8 drugs per antibody
B4: hBU12-43 (antibody, V domains shown)
VH: B1 VH
VL: B1 VL
modifications: antibody carries drug-linker 43 (MDpr-Lys(PEG2)-glucuronide-MMAE), 8 drugs per antibody
B5: hBU12-19 (antibody, V domains shown)
VH: B1 VH
VL: B1 VL
modifications: antibody carries drug-linker 19 (MDpr-Lys(PEG4[PEG4]3)-glucuronide-MMAE, branched PEG), 8 drugs per antibody
B6: hBU12-17 (antibody, V domains shown)
VH: B1 VH
VL: B1 VL
modifications: antibody carries drug-linker 17 (MDpr-Lys(PEG12)-glucuronide-MMAE), 8 drugs per antibody
B7: hBU12-42 (antibody, V domains shown)
VH: B1 VH
VL: B1 VL
modifications: antibody carries drug-linker 42 (MDpr-Lys(PEG4)-glucuronide-MMAE), 8 drugs per antibody
B8: hBU12 32-load conjugate having the -X-D moiety of MDpr-PAB(gluc)-Camptothecin (antibody, V domains shown)
VH: B1 VH
VL: B1 VL
modifications: antibody carries PEGylated multiplexed scaffold C with MDpr-PAB(gluc)-Camptothecin, 32 drugs per antibody

molecular target: T1, CD19; experiment: cell-based or functional assay

First: B1
Second: B2
The “IC50, in vitro cytotoxicity, RL cells” value of the first is lower: 0.061 µg/mL for the first, greater than 1 µg/mL for the second.

Compared with B3, B4 is lower in “IC50, in vitro cytotoxicity, RL cells” value: greater than 1 µg/mL for the first, 0.229 µg/mL for the second.

B5 and B6 cannot be ordered by “IC50, in vitro cytotoxicity, RL cells” value: greater than 1 µg/mL for the first, greater than 1 µg/mL for the second.

In the case of B7, the “IC50, in vitro cytotoxicity, RL cells” value is reported as greater than 1 µg/mL.

B1 and B2 are the same in “IC50, in vitro cytotoxicity, Ramos cells” value: 0.002 µg/mL for the first, 0.002 µg/mL for the second.

First: B3
Second: B4
The “IC50, in vitro cytotoxicity, Ramos cells” value of the first is 2-fold higher: 0.004 µg/mL for the first, 0.002 µg/mL for the second.

B5 and B6 are the same in “IC50, in vitro cytotoxicity, Ramos cells” value: 0.002 µg/mL for the first, 0.002 µg/mL for the second.

For B7, the “IC50, in vitro cytotoxicity, Ramos cells” value was 0.003 µg/mL.

B1 and B2 are within 1.5-fold of each other in “IC50, in vitro cytotoxicity, SU-DHL-4 cells” value (“IC50 … SU-DHL-4 cells” for short): 0.022 µg/mL for the first, 0.016 µg/mL for the second.

B3 and B4 cannot be ordered by “IC50 … SU-DHL-4 cells” value: greater than 1 µg/mL for the first, greater than 1 µg/mL for the second.

B5 and B6 cannot be ordered by “IC50 … SU-DHL-4 cells” value: greater than 1 µg/mL for the first, greater than 1 µg/mL for the second.

B7 was tested, and the “IC50 … SU-DHL-4 cells” value was greater than 1 µg/mL.

Compared with B1, B2 is 42-fold higher in “IC50, in vitro cytotoxicity, WSU-DLCL-2 cells” value (shortened to “IC50 … WSU-DLCL-2 cells”): 0.005 µg/mL for the first, 0.211 µg/mL for the second.

Compared with B3, B4 is 4-fold higher in “IC50 … WSU-DLCL-2 cells” value: 0.003 µg/mL for the first, 0.012 µg/mL for the second.

Compared with B5, B6 is 1.9-fold lower in “IC50 … WSU-DLCL-2 cells” value: 0.247 µg/mL for the first, 0.129 µg/mL for the second.

With B7 the “IC50 … WSU-DLCL-2 cells” value was 0.005 µg/mL.

molecular target: transferrin receptor (UniProt P02786); experiment: cell-based or functional assay
Sequence (P02786 whole entry): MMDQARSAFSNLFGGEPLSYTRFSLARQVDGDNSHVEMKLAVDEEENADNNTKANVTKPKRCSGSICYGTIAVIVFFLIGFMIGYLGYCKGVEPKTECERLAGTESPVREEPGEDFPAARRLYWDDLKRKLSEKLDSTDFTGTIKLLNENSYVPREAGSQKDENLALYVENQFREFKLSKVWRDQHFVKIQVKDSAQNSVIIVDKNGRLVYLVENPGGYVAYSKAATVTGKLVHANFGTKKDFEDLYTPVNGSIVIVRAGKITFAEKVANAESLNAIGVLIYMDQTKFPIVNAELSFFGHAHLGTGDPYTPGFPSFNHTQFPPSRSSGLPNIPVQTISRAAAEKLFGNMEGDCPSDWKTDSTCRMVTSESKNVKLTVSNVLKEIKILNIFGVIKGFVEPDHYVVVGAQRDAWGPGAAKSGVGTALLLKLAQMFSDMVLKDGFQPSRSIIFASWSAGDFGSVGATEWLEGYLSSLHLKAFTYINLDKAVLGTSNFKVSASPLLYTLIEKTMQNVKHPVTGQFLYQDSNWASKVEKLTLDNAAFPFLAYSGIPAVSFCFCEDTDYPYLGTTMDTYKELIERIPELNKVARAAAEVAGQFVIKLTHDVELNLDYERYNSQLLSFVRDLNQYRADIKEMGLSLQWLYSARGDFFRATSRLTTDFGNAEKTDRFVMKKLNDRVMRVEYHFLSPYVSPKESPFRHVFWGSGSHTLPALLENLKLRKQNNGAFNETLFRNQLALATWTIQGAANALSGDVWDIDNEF

Work on “8-load anti-transferrin receptor ADC (cOKT9) having -X-D of MDpr-PABA(gluc)-Camptothecin (antibody)” yielded an IC50, cytotoxicity, colorectal cell line HT-29 (TfR copy number 23K) greater than 1000 nM.

Work on “8-load anti-transferrin receptor ADC (cOKT9) having -X-D of MDpr-PABA(gluc)-Camptothecin (antibody)” yielded an IC50, cytotoxicity, melanoma cell line SK-MEL-5 (TfR copy number 21K) greater than 1000 nM.

molecular target: T1, CD19; experiment: cell-based or functional assay; remark: another data set of the same source

B8 was tested, and the “fold improvement in cytotoxicity against the 8-load conjugate, Raj cells” value was greater than 5 fold.

With B8 the “fold improvement in cytotoxicity against the 8-load conjugate, Ramos cells” value was greater than 5 fold.
